The values below come from paper PMC8215223.

Sequences and labels used below:
B1: GFP-WT-HOOK3 [human] / GM130 (endogenous) [human (endogenous in HeLa)] (parent)
chain 1: MFSVESLERAELCESLLTWIQTFNVDAPCQTVEDLTNGVVMAQVLQKIDPAYFDENWLNRIKTEVGDNWRLKISNLKKILKGILDYNHEILGQQINDFTLPDVNLIGEHSDAAELGRMLQLILGCAVNCEQKQEYIQAIMMMEESVQHVVMTAIQELMSKESPVSAGNDAYVDLDRQLKKTTEELNEALSAKEEIAQRCHELDMQVAALQEEKSSLLAENQVLMERLNQSDSIEDPNSPAGRRHLQLQTQLEQLQEETFRLEAAKDDYRIRCEELEKEISELRQQNDELTTLADEAQSLKDEIDVLRHSSDKVSKLEGQVESYKKKLEDLGDLRRQVKLLEEKNTMYMQNTVSLEEELRKANAARSQLETYKRQVVELQNRLSEESKKADKLDFEYKRLKEKVDSLQKEKDRLRTERDSLKETIEELRCVQAQEGQLTTQGLMPLGSQESSDSLAAEIVTPEIREKLIRLQHENKMLKLNQEGSDNEKIALLQSLLDDANLRKNELETENRLVNQRLLEVQSQVEELQKSLQDQGSKAEDSVLLKKKLEEHLEKLHEANNELQKKRAIIEDLEPRFNNSSLKIEELQEALRKKEEEMKQMEERYKKYLEKAKSVIRTLDPKQNQGAAPEIQALKNQLQERDRLFHSLEKEYEKTKSQREMEEKYIVSAWYNMGMTLHKKAAEDRLASTGSGQSFLARQRQATSSRRSYPGHVQPATAR
chain 2: MWPQPRLPPRPAMSEETRQSKLAAAKKKLREYQQRNSPGVPTGAKKKKKIKNGSNPETTTSGGCHSPEDTPKDNAATLQPSDDTVLPGGVPSPGASLTSMAASQNHDADNVPNLMDETKTFSSTESLRQLSQQLNGLVCESATCVNGEGPASSANLKDLESRYQQLAVALDSSYVTNKQLNITIEKLKQQNQEITDQLEEEKKECHQKQGALREQLQVHIQTIGILVSEKAELQTALAHTQHAARQKEGESEDLASRLQYSRRRVGELERALSAVSTQQKKADRYNKELTKERDALRLELYKNTQSNEDLKQEKSELEEKLRVLVTEKAGMQLNLEELQKKLEMTELLLQQFSSRCEAPDANQQLQQAMEERAQLEAHLGQVMESVRQLQMERDKYAENLKGESAMWRQRMQQMSEQVHTLREEKECSMSRVQELETSLAELRNQMAEPPPPEPPAGPSEVEQQLQAEAEHLRKELEGLAGQLQAQVQDNEGLSRLNREQEERLLELERAAELWGEQAEARRQILETMQNDRTTISRALSQNRELKEQLAELQSGFVKLTNENMEITSALQSEQHVKRELGKKLGELQEKLSELKETVELKSQEAQSLQQQRDQYLGHLQQYVAAYQQLTSEKEVLHNQLLLQTQLVDQLQQQEAQGKAVAEMARQELQETQERLEAATQQNQQLRAQLSLMAHPGEGDGLDREEEEDEEEEEEEAVAVPQPMPSIPEDLESREAMVAFFNSAVASAEEEQARLRGQLKEQRVRCRRLAHLLASAQKEPEAAAPAPGTGGDSVCGETHRALQGAMEKLQSRFMELMQEKADLKERVEELEHRCIQLSGETDTIGEYIALYQSQRAVLKERHREKEEYISRLAQDKEEMKVKLLELQELVLRLVGDRNEWHGRFLAAAQNPADEPTSGAPAPQELGAANQQGDLCEVSLAGSVEPAQGEAREGSPRDNPTAQQIMQLLREMQNPRERPGLGSNPCIPFFYRADENDEVKITVI

In this experiment the parent is B1. As to the kind of experiment: coIP (co-immunoprecipitation, blot band intensity quantified). Particulars: with GM130 (endogenous) [human (endogenous in HeLa)]; HeLa cells, 100 ng/mL nocodazole for 16 hr (+); read off a plot.
As for chain 1 S707E, the response amounted to 11 A.U. Take chain 1 S707A: the response is 16 A.U. For the variant chain 1 S238A, the response was determined as 16 A.U.

With chain 1 S238E, the response was 12 A.U. With chain 1 S238E S707E, the response was determined as 6.5 A.U. With chain 1 S238A S707A the figure was 5.5 A.U.
